Laboratory results: US20240002497A1 (Merck Sharp & Dohme, published 2024)
Positions count from the first letter of the chain named. In names and notes the source's numbering stands. One block for each binder: values may come before it.

Assays:
[1] = molecular target: T1, huNav1.7α + β1-β2-β3 (human Nav1.7α co-expressed with human Navβ1, Navβ2 and Navβ3 on cells) (human); assay: binding FACS, CHO FlpIn cells
T1 construct: also called huNav1.7-beta1-beta2-beta3; CHO FlpIn huNav1.7α + β1-β2-β3
Outline: (§1)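 Assessment used purified FLAG3-tagged ISVD incubated on cells for 30 minutes at 4° C in PBS containing 10% FBS and NaN₃, with cells washed between steps. Propidium iodide (1 μg/mL) staining removed dead cells from analysis.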

[2] = molecular target: T2, rhNav1.7α + β1-β2-β3 (rhesus Nav1.7α co-expressed with Navβ1, Navβ2 and Navβ3 on cells) (rhesus monkey (α subunit); β subunits …); assay: binding FACS, CHO FlpIn cells
T2 construct: also called rhNav1.7-beta1-beta2-beta3; CHO FlpIn rhNav1.7α + β1-β2-β3
Outline: as §1

[3] = molecular target: T3, huNav1.7α+β1 (human, UniProt Q15858 1-1988; Q07699 19-218); assay: binding FACS, HEKa/β1 cells
T3 construct: also called huNav1.7-beta1; HEKa/β1
Method: Binding of the ISVDs to cell-expressed Nav1.7α was detected via murine anti-Flag (Sigma, catalog #F1804). Briefly, cells were resuspended in FACS buffer (PBS, 10% FBS, NaN₃) and transferred to a 96-well V-bottom plate at 1×10^5 cells/well. Purified FLAG3-tagged ISVD was diluted in FACS buffer and added to the cells for 30 minutes at 4° C. […] Prior to the read-out, the samples were resuspended in 1 μg/mL propidium iodide (Sigma, catalog #P4170) to exclude dead cells. Between each step, the cells were centrifuged for 5 minutes at 200 grams and washed with 100 μL/well FACS buffer.

B1: F010302325 (VHH)
VHH: EVQLVESGGGVVQPGGSLRLSCAASGPVFNINRMAWYRQAPGKQRELVAYVTPTGDISYADSVKGRFTISRDRSKRVYLQMNSLRPEDTALYYCRALLQPDSYSNTRTYWGQGTLVTVSS
notes: also called F0103387G04(L11V, A12V, K33R, R39Q, S50Y, S56D, T60A, G73R, W78V, S79Y, T83R, V89L, N93R)
- Bmax [1]: 96%
- EC50 [1]: 13 nM
- Bmax [2]: 99%
- EC50 [2]: 8.7 nM

B2: F010301865 (VHH)
VHH: B1 VHH with R73G, S120A
notes: also called F0103387G04(L11V, A12V, K33R, R39Q, S50Y, S56D, T60A, W78V, S79Y, T83R, V89L, N93R)
- Bmax [1]: 100%
- EC50 [1]: 20 nM
- Bmax [2]: 100%
- EC50 [2]: 11 nM

B3: F010302329 (VHH)
VHH: B1 VHH with R73G, S102R
notes: also called F0103387G04(L11V, A12V, K33R, R39Q, S50Y, S56D, T60A, W78V, S79Y, T83R, V89L, N93R, S100R)
- Bmax [1]: 94%
- EC50 [1]: 7.6 nM
- Bmax [2]: 44%
- EC50 [2]: 19 nM

B5: F010302327 (VHH)
VHH: B1 VHH with R73A, D101R
notes: also called F0103387G04(L11V, A12V, K33R, R39Q, S50Y, S56D, T60A, G73A, W78V, S79Y, T83R, V89L, N93R, D99R)
- Bmax [1]: 87%
- EC50 [1]: 7 nM
- Bmax [2]: 7%
- EC50 [2]: 93 nM

B7: F010302326 (VHH)
VHH: B1 VHH with R73G, D101R
notes: also called F0103387G04(L11V, A12V, K33R, R39Q, S50Y, S56D, T60A, W78V, S79Y, T83R, V89L, N93R, D99R)
- Bmax [1]: 89%
- EC50 [1]: 6.2 nM
- Bmax [2]: 32%
- EC50 [2]: 18 nM

B8: F010302330 (VHH)
VHH: B1 VHH with R73A, S102R
notes: also called F0103387G04(L11V, A12V, K33R, R39Q, S50Y, S56D, T60A, G73A, W78V, S79Y, T83R, V89L, N93R, S100R)
- Bmax [1]: 93%
- EC50 [1]: 10 nM
- Bmax [2]: 23%
- EC50 [2]: 200 nM

B14: F010301840 (VHH)
VHH: EVQLVESGGGVVQPGGSLRLSCAASGPVFNINRMAWYRQAPGKQRELVAYVTPTGDISYTDSVKGRFTISRDGSKRTWSLQMNSLRPEDTALYYCRALLQPDSYSNTRTYWGQGTLVTVSS
notes: also called F0103387G04(R76_V78insT)(L11V, A12V, K33R, R39Q, S50Y, S56D, T83R, V89L, N93R)
- Bmax [1]: 100%
- EC50 [1]: 47 nM
- Bmax [2]: 50%
- EC50 [2]: 48 nM

B15: F010301055 (VHH)
VHH: EVQLVESGGGLVQPGGSLRLSCAASGMLFNANTQGWYRQAPGKQRELVAFIFWGGYVNYVDSVKGRFTISRDNAKRTMYLQMNSLKPEDSAIYYCSLSRYLGQGTLVTVSS
notes: vs F0103265A11: S53W, T57V
- Bmax relative to '535 [3]: 117%
- EC50 [3]: 4.4 nM

B16: F010301232 (VHH)
VHH: B15 VHH with A31R, W53S, V57T, N58T, S96A, L101Q
notes: vs F0103265A11: A31R, N58T, S93A, L103Q
- Bmax relative to '535 [3]: 112%
- EC50 [3]: 9.3 nM

B17: F010301175 (VHH)
VHH: B15 VHH with A31R, W53S, V57T, N58T
notes: vs F0103265A11: A31R, N58T
- Bmax relative to '535 [3]: 111%
- EC50 [3]: 5.4 nM

B18: F010301113 (VHH)
VHH: B15 VHH with A31R, W53S, V57T, V60N, R99V, L101Q
notes: vs F0103265A11: A31R, V60N, R101V, L103Q
- Bmax relative to '535 [3]: 111%
- EC50 [3]: 5.7 nM

B19: F010301111 (VHH)
VHH: B15 VHH with W53S, V60N, S96A
notes: vs F0103265A11: T57V, V60N, S93A
- Bmax relative to '535 [3]: 99%
- EC50 [3]: 5.4 nM

Second part, the binder after the results:

- Bmax [1]: 100%
- EC50 [1]: 17 nM
- Bmax [2]: 100%
- EC50 [2]: 20 nM
B4: F010302372 (VHH)
VHH: B1 VHH with S102V, N105I
notes: also called F0103387G04(L11V, A12V, K33R, R39Q, S50Y, S56D, T60A, G73R, W78V, S79Y, T83R, V89L, N93R, S100V, N100cI)

- Bmax [1]: 100%
- EC50 [1]: 9.4 nM
- Bmax [2]: 100%
- EC50 [2]: 10 nM
B6: F010302371 (VHH)
VHH: B1 VHH with D101N, S102V, N105I
notes: also called F0103387G04(L11V, A12V, K33R, R39Q, S50Y, S56D, T60A, G73R, W78V, S79Y, T83R, V89L, N93R, D99N, S100V, N100cI)

- Bmax [1]: 100%
- EC50 [1]: 6.2 nM
- Bmax [2]: 100%
- EC50 [2]: 4.3 nM
B9: F010302384 (VHH)
VHH: B1 VHH with D72G, R73G, D101S, N105I
notes: also called F0103387G04(L11V, A12V, K33R, R39Q, S50Y, S56D, T60A, D72G, W78V, S79Y, T83R, V89L, N93R, D99S, N100cI)

- Bmax [1]: 100%
- EC50 [1]: 7.3 nM
- Bmax [2]: 100%
- EC50 [2]: 4.9 nM
B10: F010302386 (VHH)
VHH: B1 VHH with D72Q, R73G, D101S, N105I
notes: also called F0103387G04(L11V, A12V, K33R, R39Q, S50Y, S56D, T60A, D72Q, W78V, S79Y, T83R, V89L, N93R, D99S, N100cI)

- Bmax [1]: 100%
- EC50 [1]: 7.9 nM
- Bmax [2]: 100%
- EC50 [2]: 5 nM
B11: F010302385 (VHH)
VHH: B1 VHH with D72Q, R73G, D101S, N105G
notes: also called F0103387G04(L11V, A12V, K33R, R39Q, S50Y, S56D, T60A, D72Q, W78V, S79Y, T83R, V89L, N93R, D99S, N100cG)

- Bmax [1]: 100%
- EC50 [1]: 9 nM
- Bmax [2]: 100%
- EC50 [2]: 7.3 nM
B12: F010302370 (VHH)
VHH: B1 VHH with D101S, N105I
notes: also called F0103387G04(L11V, A12V, K33R, R39Q, S50Y, S56D, T60A, G73R, W78V, S79Y, T83R, V89L, N93R, D99S, N100cI)

- Bmax [1]: 90%
- EC50 [1]: 6 nM
- Bmax [2]: 38%
- EC50 [2]: 24 nM
B13: F010302331 (VHH)
VHH: B1 VHH with S102R
notes: also called F0103387G04(L11V, A12V, K33R, R39Q, S50Y, S56D, T60A, G73R, W78V, S79Y, T83R, V89L, N93R, S100R)
